± gives the half width of the 95% confidence interval.
Tests used:
[1] = folding stability dG unfold (combined trypsin and chymotrypsin); higher = more stable
Procedure, shortened: (§1)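 Designed mini-proteins with no cysteine and under 80 residues were kept only if AlphaFold2 dimer inter-PAE was above 15. In a PA-tagged cDNA display construct, they were digested with trypsin and chymotrypsin and then sequenced. K50 was inferred by Bayesian fitting of counts, and unfolding free energy was derived per protease or combined against a sequence-predicted unfolded-state K50 and a shared folded-state K50.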

[2] = folding stability dG unfold from trypsin proteolysis; higher = more stable
Procedure, shortened: as §1

[3] = folding stability dG unfold from chymotrypsin proteolysis; higher = more stable
Procedure, shortened: as §1

Row | Sequence | folding stability dG unfold [1] [kcal/mol] | folding stability dG unfold [2] [kcal/mol] | folding stability dG unfold [3] [kcal/mol]
1 | SAGGSAPFKIAEIESVEYDPNEGRPTIRITIEHDGRPVEIWVPPGGIQIFNMGDGEPIKEIPLDEISAGGSA [r15_85_TrROS] | 0.0268 ± 0.26 | 0.182 ± 0.25 | 0.434 ± 0.48
2 | SAGGNIRIWFPGREIPIGGTVEDIKANIRKWLGRPIPEELIEQIDKGKTVSEIVDWLRKRGFPIRIWSAGGS [r16_601_TrROS] | 1.87 ± 0.11 | 1.78 ± 0.031 | 1.94 ± 0.16
3 | SAGGSAGGMKITTPDGKEITFPPKDETVTLTITVKLEDGTTVTIEIKFNKNGEIVEIKISIEKKSAGGSAGG [r6_530_TrROS_Hall] | 1.99 ± 0.17 | 1.52 ± 0.07 | 2.43 ± 0.061
4 | SAGGELTEEQRKRLEEERRRREEEERRRQAAPVKVTVTVEFDPETGEVRVRVFNENGELVAEARFKVESAGG [r13_247_TrROS_Hall] | 3.17 ± 0.19 | 2.08 ± 0.092 | 3.77 ± 0.14
5 | SMPEVETVTLTLTLVDEETGEEVTIEITATRVDGYLVLTMKVEVTVNGKKYTIEMTIVVKPGEEITLTLESA [r9_1015_TrROS_Hall] | > 6 | 3.99 ± 0.33 | 5.85 ± 0.37
6 | SAGGSAGGSAGGSGKLYYIVVELPNGEKISLLVESPEGAIELLEKLNYPVVKAEFFPISSAGGSAGGSAGGS [r4_213_TrMRF] | 2.84 ± 0.12 | 2.29 ± 0.091 | 3.09 ± 0.055
7 | SAGMPEPRVFEIPNEGSESDLRDAVRELAEELRPSGREVRLVVEVGGRPREYRLEEVDRFPPDFRVVLGSAG [r5_626_TrMRF] | 0.125 ± 0.12 | -0.362 ± 0.25 | 0.324 ± 0.16
8 | SAGGSAGGSAGGDLLRDLPGLELRIETVTVTERYFDEDGELVEEREETVTRIELRRPGEESAGGSAGGSAGG [r7_614_TrROS_Hall] | 1.75 ± 0.2 | 0.383 ± 0.2 | 2.15 ± 0.1
9 | SAGGGVMIAIKKIDPKNGKLEIEIWMPEGFEDPDQRKEMLEMADSLADRLQELHGIPVKVTIHPFPNSAGGS [r16_304_TrROS] | 2.31 ± 0.12 | 2.31 ± 0.083 | 2.27 ± 0.076
10 | SAGGSASVKIEVTVSPEQPDLTEEEAKAALTLTLPDGRPVKVEVLEVKPVPGSTVLLVEVEENVLLSAGGSA [r15_331_JUSTAS] | 1.13 ± 0.079 | 1.64 ± 0.061 | 0.487 ± 0.073
11 | SAGGSAGGSAGGSDPVKVTVTFTATVTVTLPDGGTAPVTLTVTVTAELPPGQSVEDFVASAGGSAGGSAGGS [r4_126_TrMRF] | 3.3 ± 0.073 | 2.6 ± 0.033 | 3.65 ± 0.055
12 | SAGGSAGGKKYEVVSTIKDPATGETITVIKKDGKLIITITNKNGETKTIEITVKPGETITITAPSAGGSAGG [r6_379_TrROS_Hall] | 1.74 ± 0.057 | 1.93 ± 0.077 | 1.57 ± 0.026
13 | SAGKIVIDKDNMKVYVTLPNGKKIELSLEELKKLLEELKKEGKPLTAEEIAEKLKKEFPGAEVEIVPVSAGG [r19_46_TrROS_Hall] | 3.69 ± 0.083 | 2.38 ± 0.086 | 4.01 ± 0.064
14 | KKKKPPKVVKVEIKFDKKTKKITVKVDGKTFTITLPDGKKIEITVPAGMSEEEIKALAKKLAKELEEKLKKS [r1_25_TrROS_Hall] | 2.18 ± 0.55 | 3.73 ± 0.12 | 1.97 ± 0.2
15 | SAGGSAGGSAGMKVTATSLNPASGTVTVKFSDGTTRTFSSVEALKAAIPEGVPIEIAPAVSAGGSAGGSAGG [r17_295_JUSTAS] | 2.36 ± 0.051 | 2.46 ± 0.13 | 2.297 ± 0.012
16 | SAGGTAEEIAEKVRDIFQDNGYPIEVEPRRWDPNNYVTWRMRMPGWSIEIQWDPDDLEVEIEIEPMPSAGGS [r8_157_TrROS] | 3.24 ± 0.2 | 2.47 ± 0.073 | 3.71 ± 0.11

Row | Sequence | folding stability dG unfold [1] [kcal/mol] | folding stability dG unfold [2] [kcal/mol] | folding stability dG unfold [3] [kcal/mol]
17 | SAGSKKYIPKEVTVYVLGTAPPDMSLEEALKNPNFAVSVPLKATVIYDPETKTARVLLPDGTVVEFPVPSAG [r5_701_TrMRF] | 1.52 ± 0.1 | 1.5 ± 0.049 | 1.44 ± 0.11
18 | SAGEEKVEELARELAEELGVTITEVTVTEEGDTVTITVVNEETGERITITVTRNEDGEITVTITVEKLPSAG [r5_888_TrROS_Hall] | 2.62 ± 0.11 | 2.61 ± 0.28 | 2.53 ± 0.17
19 | SAGMTPDTTLPDLVVTIYSPDGTSTTYTFPNVTRVTEVDPETGKLTLYSPEGRTITLTLSPDEKVEIVGSAG [r5_762_JUSTAS] | 2.84 ± 0.037 | 2.45 ± 0.035 | 3.024 ± 0.027
20 | SAGMKIEPTKDYVLITVNGPEKALETIKKLKELIPNPEILDIKPHPHPNGENPWTIIIPTKNIPPEVLFSAG [r5_857_TrMRF] | 0.68 ± 0.15 | 0.655 ± 0.042 | 0.519 ± 0.14
21 | SAGGSAGGSAREPPEAELVDERERTRPDGRPYTIAILRNPRDPREYLRIPGLGEWYPLDKLSAGGSAGGSAG [r3_181_TrMRF] | 0.126 ± 0.12 | -0.574 ± 0.28 | 0.431 ± 0.22
22 | SAGGSDTLKKLFPGVKEIEIEVEPYWVPMPPEMAKDNPEAPGQTFPVPRVKITIKIELPRDPDGKLSAGGSA [r2_404_TrROS] | 0.772 ± 0.12 | 1.09 ± 0.065 | 0.324 ± 0.18
23 | SAGGSAGGRTLRIMVPMDSPEDAVEQAKEIVRELGLPPNFKIDDINVHRNPNGRYQVMVKIRVNSAGGSAGG [r6_284_TrROS] | 1.35 ± 0.064 | 1.05 ± 0.052 | 1.5 ± 0.07
24 | SAGGSAGGSKLSEEEKKKLAKKPKIKIKVKIRNKDGKEYKPGEKVKIEINGKIYEIESIEIEPSAGGSAGGS [r12_43_TrROS_Hall] | 1.3 ± 0.085 | 1.12 ± 0.049 | 1.36 ± 0.04
25 | SAGGSAGGSAGGLGLDLPVFPVKTTTSSSTVPLPNGQTVTVTTTTTTFPGSSSTTTTTTGSAGGSAGGSAGG [r17_59_JUSTAS] | 1.31 ± 0.037 | 1.02 ± 0.031 | 1.46 ± 0.037
26 | SAGGEVEVKEITMTAEELRELIEELKKEGYLVVIENKTGEKKVIPVKEDDLKPGDEVKIRVFKLKKPSAGGS [r16_31_TrROS_Hall] | 0.733 ± 0.31 | 0.537 ± 0.14 | 0.691 ± 0.39
27 | SAGGSAGGSTTLTVDLPFGPATVHITGLPDSFVAFIEFDNPPFRATATIKEISKNGIVIEDIDFSAGGSAGG [r6_982_TrMRF] | 2.1 ± 0.22 | 2.2 ± 0.086 | 1.9 ± 0.13
28 | SAGGSAGGSDGVIQIPIKSDDGEEFKIEIPIEQIKKMMKEGRPIKIWLFDNGKMVRPFEIPIDSAGGSAGGS [r12_991_TrROS] | 0.735 ± 0.19 | 0.428 ± 0.12 | 1.06 ± 0.15
29 | SNIEIEPYQPGEPREYEIPPGKLKITFYQDPGPMYIRVKDPGNGEPVEIPIPMERGDWDNAAKKILKAIKSA [r9_982_TrROS] | 0.802 ± 0.32 | 0.81 ± 0.14 | 0.454 ± 0.27
30 | SNPNIKVTTTSETLPDNTLRTTETNPDTGTVTETLVPTDGNGPKTVKTTTTTTDTSTGKKTITTTTTTIPVS [r1_45_JUSTAS] | 0.529 ± 0.085 | -1.33 ± 0.26 | 0.99 ± 0.02
31 | SAGGSAGGMDAEELAERIANHFQEHFPDMPIKVEVDPDHGWAKIEMRNPNNPGQKHEFEIPIDKSAGGSAGG [r6_478_TrROS] | 0.912 ± 0.1 | 0.311 ± 0.093 | 1.29 ± 0.031

Reference: the supplement of paper PMC12764529
